As usually defined, the Kd is the free concentration of one partner at which half of the binding sites on the other are occupied at equilibrium, for simple one-to-one binding. A lower Kd goes with higher affinity.

Results on 2 substances are retold here after patent publication US20260217843A1.

For one test, the target named is human FcRn (human) (UniProt P55899). Nature of the test: SPR (Biacore 8K+), antibody captured by anti-human kappa, human FcRn injected, pH 5.8; pH 5.8. For orientation: In SPR one partner is held on a chip, and binding of the other changes the refractive index at the surface.
The target in test [1] is cynomolgus FcRn (cynomolgus) (UniProt Q8SPV9). Nature of the test: SPR (Biacore 8K+), antibody captured by anti-human kappa, cynomolgus FcRn injected, pH 5.8; pH 5.8.
The target of another test is C1q. As to the kind of experiment: SPR (Biacore 8K+), antibody captured by anti-human IgG Fc, C1q injected at 25 nM, mean response.
C1q, sequence (P02745 23-245, chain 1 of 3): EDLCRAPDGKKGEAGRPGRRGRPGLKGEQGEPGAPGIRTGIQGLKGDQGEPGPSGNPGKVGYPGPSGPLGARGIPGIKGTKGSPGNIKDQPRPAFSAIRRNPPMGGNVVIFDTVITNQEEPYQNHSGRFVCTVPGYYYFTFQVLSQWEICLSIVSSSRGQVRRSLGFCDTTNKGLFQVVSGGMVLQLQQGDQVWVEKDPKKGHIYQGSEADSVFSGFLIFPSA
C1q, sequence (P02746 28-253, chain 2 of 3, further chain): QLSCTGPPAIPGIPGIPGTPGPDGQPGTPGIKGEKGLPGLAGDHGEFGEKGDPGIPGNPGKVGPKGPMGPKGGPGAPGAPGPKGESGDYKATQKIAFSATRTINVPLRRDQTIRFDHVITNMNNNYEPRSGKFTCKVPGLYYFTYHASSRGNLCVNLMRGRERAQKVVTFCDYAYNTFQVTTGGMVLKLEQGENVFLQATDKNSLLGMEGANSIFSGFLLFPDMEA
C1q, sequence (P02747 29-245, chain 3 of 3, further chain): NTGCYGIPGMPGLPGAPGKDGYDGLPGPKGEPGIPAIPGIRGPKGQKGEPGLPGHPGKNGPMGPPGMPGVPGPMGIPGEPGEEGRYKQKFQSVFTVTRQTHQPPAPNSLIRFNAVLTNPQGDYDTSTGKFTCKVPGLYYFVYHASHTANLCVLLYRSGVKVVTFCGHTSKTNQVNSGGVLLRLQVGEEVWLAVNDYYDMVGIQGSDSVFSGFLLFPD

human FcRn (human), sequence (P55899 24-297 limits assumed, form in doubt, chain 1 of 2): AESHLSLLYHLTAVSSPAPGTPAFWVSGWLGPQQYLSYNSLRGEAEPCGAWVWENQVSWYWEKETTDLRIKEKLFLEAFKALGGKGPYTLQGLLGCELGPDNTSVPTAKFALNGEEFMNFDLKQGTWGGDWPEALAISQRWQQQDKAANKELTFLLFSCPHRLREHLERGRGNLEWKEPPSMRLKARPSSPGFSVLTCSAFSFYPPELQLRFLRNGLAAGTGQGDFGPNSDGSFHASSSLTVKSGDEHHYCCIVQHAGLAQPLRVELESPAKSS
human FcRn (human), sequence (chain, as listed by the source limits assumed, form in doubt, chain 2 of 2): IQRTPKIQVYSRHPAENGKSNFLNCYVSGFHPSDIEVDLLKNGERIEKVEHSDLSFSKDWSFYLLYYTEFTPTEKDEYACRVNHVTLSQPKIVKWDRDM

For the substance “positive control based on the sequences of the anti-hOX40L antibody amlitelimab”, the figures for the Kd (with human FcRn (human); in test [1]) were 1110 nM and 926 nM, respectively.

In turn, Rituximab, an anti-CD20 antibody registered an RU at 25 nM C1q in the test with C1q of 386 RU.
